Consider 3 molecules from patent publication US20260193356A1.

To fix the notation:
B1: B21A06-N297A (antibody, human IgG1, V domains shown)
VH: QVQLQESGGDVVQPGRSLRLSCAASGFTFNNYGMHWVRQAPSKGLEWVAFIWYDGSNKYYGDSVKGRFTISRDNSKNTLYLQMNSLRAEDTALYYCARGDNWNSDAFDIWGPGTMVTVSS
VL: EIVMTQSPLSLPVTLGQPASISCRSSQSLVYTNGNTYLNWFQQRPGQSPRRLIYKVSSRDSGVPDRFSGSGSGTDFTLKISRVAAEDVGLYYCMQGTHWPLTFGGGTKVEIK
B2: B22E02-N297A (antibody, human IgG1, V domains shown)
VH: QVQLVQSGGGLVQPGRSLRLSCRASGFTFDGYSMNWVRQAPGKGLEWVGFIRSKGYGGTSESAASVKGRFTISRDDSKSIAYLQMNSLKTEDTAVYYCTRTRNWNDEGYFDYWGLGTLVTVSS
VL: DIQMTQSPSSLSASVGDRVTITCQASQDINKYLNWYQQKPGKAPKLLIYDASNSETGVPSRFSGSGSGTDFTFTISSLQPEDISTYYCQQYDILPITFGQGTRLEIK
B3: B20B02-N297A (antibody, human IgG1, V domains shown)
VH: QVQLQQSGGGVVQPGRSLRLSCAASGFTFSTYGMHWVRQAPGKGLEWVAALSFDGGNIYYGDSVKGRFTISRDNSKNTLYLQMNSLRAEDTALYYCAKARLPYSYDAVDYWGQGTLVTVSS
VL: EIVMTQSPATLSVSPGERATLSCRASQSVSSNLAWYQQKPGQAPRLLIYDTSTRAIGIPARFSGSGSGTEFTLTISSLQSEDFAIYYCHQYNFWPPITLGQGTRLEIK

The target in the first experiment is dog (Canis lupus) PDL1 (dPDL1) expressed on CHO-S cells (CHO-S-dPDL1) (dog (Canis lupus)). Description: flow cytometry on CHO-S-dPDL1 cells; antibody 0.1 µg/mL. For orientation: In flow cytometry, cells or beads pass a laser one at a time.
Chain of dog (Canis lupus) PDL1 (dPDL1) expressed on CHO-S cells (CHO-S-dPDL1) (dog (Canis lupus)) (chain, as listed by the source limits assumed, form in doubt): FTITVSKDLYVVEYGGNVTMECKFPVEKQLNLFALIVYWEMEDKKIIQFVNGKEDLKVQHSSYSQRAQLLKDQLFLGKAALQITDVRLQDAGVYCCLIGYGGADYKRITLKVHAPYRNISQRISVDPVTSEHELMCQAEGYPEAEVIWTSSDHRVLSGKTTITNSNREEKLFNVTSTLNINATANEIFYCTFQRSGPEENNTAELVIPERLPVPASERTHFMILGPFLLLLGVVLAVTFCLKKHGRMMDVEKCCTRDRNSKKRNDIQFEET
B1 came in with a Percentage of Positive Cells (%) of 50.5%.

Molecule B2 registered a Percentage of Positive Cells (%) of 51%.

Take B3: the Percentage of Positive Cells (%) turned out to be 53.1%.

Another experiment shares this target. Nature of the experiment: flow cytometry on CHO-S-dPDL1 cells; antibody 1 µg/mL.
B1: the Percentage of Positive Cells (%) worked out at 62.5%.

In the case of B2, the Percentage of Positive Cells (%) stood at 67.8%.

For the molecule B3, the Percentage of Positive Cells (%) stood at 70.7%.
